Measured values published in the RNAGym collection of RNA variant scans (doi:10.1073/pnas.2313332121).
Variants at the floor of the assay were thinned out.

B1: TPR 5TU (parent)
chain: GGAUCUUCUCGAUCUAACAAAAAAGACAAAUCUGCCACAAAGCUUGAGAGCAUCUUCGGAUGCAGAGGCGGCAGCCUUCGGUGGCGCGAUAGCGCCAACGUUCUCAACUAUGACACGCAAAACGCGUGCUCCGUUGAAUGGAGUUUAUCAUG

Variants of: B1
Assay: polymerase ribozyme fitness, log enrichment relative to wild type (log ratio); higher = more active; in vitro selection for triplet polymerase activity
Summary of the method: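 A single round of triplicate in vitro selection, including frozen incubation at −7 °C, was applied to PCR-built, transcribed mutant libraries of each subunit of a heterodimeric triplet polymerase ribozyme. Illumina sequencing of input and output libraries retained genotypes with ≥10 input reads and ≥1 read per output. Fitness is the base-2 logarithm of genotype enrichment divided by wild-type enrichment, from inverse-variance-weighted replicate averages.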

Variant	polymerase ribozyme fitness (log ratio)
A12U A39U A73U G80A C93A G141U	≤ -4.2
A37U U61A C85U U134A	-3.78
A37U A39G A49U G81C A91C G94A U146A	≤ -4.2
A28U U45A C57U A60G C75G G94A G126C	≤ -4.2
G11U U61A C87U	-3.78
C5G C8A C27U A49C U56A G94A C95G U109G	≤ -4.2
C32U G46A C51G U53C G67C G86U U101G A138U	≤ -4.2
A3G C5G G48C A52C C54G A66C C76G	≤ -4.2
C14U A41U A60C A66U G80A C85U C103U	≤ -4.2
C85G G136A	-1.31
U82A G83C C123U	-1.12
G59C C96U A106G C132U U145C	-0.905
C99A G143A	-2.02
G59C C93G	-2.98
A73G A91U	≤ -4.2
G48A G86C C123A C125G	-3.94
A12C U53A C125G A150U U151G	≤ -4.2
U53A G126A	-0.879
A60U C96G	-3.34
A52C C69G G74C	≤ -4.2
C85A G141C	-1.46
A19C U56A A91U A147C	≤ -4.2
A19G C69G C76U U82G G88A G141U A150C	≤ -4.2
C76A A121G	0.0173

Variant	polymerase ribozyme fitness (log ratio)
A3U A12G A28U C87U	≤ -4.2
G70A C75U C87G C99G C103A G140U U144G U146G	≤ -4.2
U6C G117C	-0.247
U9C A17C C54U A120G	≤ -4.2
G11C A49C U53G G141A	≤ -4.2
A37C A40C G58U G94A A97U G143C	≤ -4.2
A16G A23U A29G A37U C43U C79G C99A A122G	≤ -4.2
C8A C10G G50U C51G U56G C57G G62A G86A	≤ -4.2
G48A A60G G83U G126U U134C	-3.58
A3U A37U U56A A97U	-3.82
U31G C54U U109G A137G	-2.71
U4G A12U A39C G62A C76U C87G A91U	≤ -4.2
C27U U33C A73G C85U	-0.859
G46A G74C	≤ -4.2
A22U C38A G59A C85U C95A	-0.962
U53A C132U	-1.73
A37G G81C A142C	-3.82
A20G C27G G42C G58C G68A A121C C125U G140A	≤ -4.2
C14U A23C U101C U102A U151G	≤ -4.2
A29U C96U G136U	≤ -4.2
C8A U31A U56G C63A G68U C99A G128U	≤ -4.2
A19U G50A	-1.63
A23G G83A G94A C125U A147C	≤ -4.2
U55C A98G A113U A142G	-2.98

Variant	polymerase ribozyme fitness (log ratio)
A29U C54G U56G A60G	≤ -4.2
C85G A115U A121G A142G U144G	≤ -4.2
C35G U55A C85U	≤ -4.2
C69G G84U A89U A122C U146C	-2.82
A47C C57A C105A G126A	-3.51
U56A G70A G81C	≤ -4.2
C14G G58A	-2.24
C5A A28G G34C G74A U82A G86A C93A A97C	≤ -4.2
U61G C93U G94A U144G	≤ -4.2
A23U C85A	≤ -4.2
A19C A21C C76U C87A A110G A120G	≤ -4.2
U33A A60C G74A A137C A150U	≤ -4.2
A26U C125A	-1.8
C51G G94A U135A	-3.11
U77C C116U	-3.64
G46A C54A G94C G117A A122U G124A	-3.11
A40C A137G	-1.42
U53A U148C	-3.4
A66U G88A U109A A122C	≤ -4.2
G86A C123A U148G	-4.02
G59U G80A	-0.046
G42A A52G G70C G141C	≤ -4.2
G11A C14A A40G C79A C93A G124A	≤ -4.2
A22C A121U	-0.324

Variant	polymerase ribozyme fitness (log ratio)
C18U G58C C85U C87U	-1.92
A24C A73G G86U C99G C149G	≤ -4.2
A40C C85A U102G G143A	≤ -4.2
C38A C95A U135A	-1.76
G143C	-1.78
G152A	-1.77
A41C G46A C57U C95U A115G	-3.25
C27U A37U C125U	-3.74
A16G A52C U53A G92C U109G A137C U139G	≤ -4.2
C76A C85A A121G	-2.03
C18U A37U G83A C87U U90G A98C C116A G133U A137C	≤ -4.2
U33A G58C G92A G136U	≤ -4.2
A17C C95U	0.45
G25A C35U G84A C87A A91U C118U A142G	≤ -4.2
A40C U77C C116A C125U	≤ -4.2
C5G C10A G11A A30U A49C C93U G136A	≤ -4.2
C95U C132A	-2.32
A97G G133A	-3.61
G83C G94A A98U C125U	-1.82
A17U C51A G94U A138G A150U	≤ -4.2
C57U A60C G86A C105G	≤ -4.2
C87G C105A	≤ -4.2
C38A U56A G128U	-3.69
U61G G84A U139C U145C	≤ -4.2

Variant	polymerase ribozyme fitness (log ratio)
A24U C27U C36U G58C G83A G112U A121G G124C	≤ -4.2
A16C A24U G46C C105G C108G	≤ -4.2
A19C C51A G86C	-3.75
C105U A106C	0.388
A47C A52U U82A A120U	-1.94
C35A A60U U77A U82A G83C A97U G126A	-3.93
C85U C96G U135C	-2.57
A19C C32U A49G G59U	≤ -4.2
G68C G136U A142G	≤ -4.2
U7G A60G	-2.7
A24U G34C C79G C87U A137U	≤ -4.2
A19U A39G G74U C85G G128C C129U	≤ -4.2
U9A C38A C72A G84A C125U	≤ -4.2
U53C C54U C96A A120U	-0.901
A21G G46C U82G G88U C95G A98C	≤ -4.2
G50A U55A	-1.34
C5A C76U G84U C125U G141U	-3.64
A49U G68C	≤ -4.2
C57G G58U C93A	-1.39
A52G G83A	-0.0714
C10G C69G	-4.16
A30G G50U U55G U82A	≤ -4.2
A52G A106C	-0.69
C27A A49C G59C G74C G136U	≤ -4.2

Variant	polymerase ribozyme fitness (log ratio)
A16U C38U C51U A73G G92U G94A A98C U151A	-3.96
A29C G84A	-4.17
A39G C96U C116U	-1.75
U4A A21G U55G U101G G152A	≤ -4.2
C10U G25C G80A C87G	≤ -4.2
G84C G94A	-4.07
A21U C43U C99G A120G G126U	≤ -4.2
C85A C87U A98C	-3.62
A41G G81C U82C	-0.145
C87U C105U	-2.21
A37C A49C G81A G92C A106G C108A A115U A137U G143U	≤ -4.2
A26C C35U G88U C96G C108U G143A	≤ -4.2
C51U G143U	-2.3
C79U A98G	-3.44
U53G C54A	-2.07
A29C G48C C79A A122G G124U U144A U145G G152U	≤ -4.2
A52U C76U G86C G126C G152U	≤ -4.2
A39U U77A G81C C87U C95U A98C G126U G136C	≤ -4.2
U77G G84A G117U U135G	≤ -4.2
A64U	-3.99
U61A C79A G83C	≤ -4.2
A17G A52C	-0.98
A28U G88A A107G A142C U151A	≤ -4.2
G34C A52G G84A U109A C125U	≤ -4.2

Variant	polymerase ribozyme fitness (log ratio)
U127G G140A	-4.15
U53C G143U	-2.74
U82G G84C	-4.06
G50U C95G U104A	-1.95
C35U U56G U134A	-2.9
C38U G83C C132A	≤ -4.2
A49G G88U C96G U144C U148C U151G	≤ -4.2
G65C C85U	-4.04
C27U C72U G88A G94A G152A	-4.19
G11A C85U G92C G143A	-4.01
A52C U53A U148G	≤ -4.2
A29G A60C A89G A110U G143A	≤ -4.2
G48A C57G G83C C87G U102A G112C A119C	≤ -4.2
C63U C99G U151A	≤ -4.2
U56A G126U	0.137
G59C A138G	-3.04
C96G A115G C123A A147U	-0.404
C85G A107U	≤ -4.2
G92C C99A A138C	≤ -4.2
G11A C54G G94A	-2.96
A41C C43A A60G	≤ -4.2
A21G C51U U53A C96U G126U	-2.46
A39U U101G	-2.05
